Source: CN117836321A

Target: VV B5单体蛋白 (Wyeth牛痘毒株的B5序列, C-末端AVI标签和HIS6标签) (牛痘病毒 Wyeth毒株)

B1: A048亲本抗B5 hIgG1 (antibody, V domains shown)
VH: QEQLEESGGGLVKPEGSLTLTCTASGFSFSSSYYMCWVRQAPGRGLEWIACIYTSSGSAYYANWAKGRFTISRTSSTTVTLQMTRLTAADTATYFCVRNAVGSSYYLYLWGPGTLVTVSS
VL: AQVLTQTPSPVSAAVGGTVTISCQASQSVAGNNYLSWYQQKPGQPPNLLIYSVSTLASGVPSRFKGSGSGTQFTLTISDLECDDAATYYCQGYYNDGIWAFGGGTEVVVK
  Kd: 9.5 nM
